Test results published in paper PMC4316792, “The dehydrogenase region of the NADPH oxidase component Nox2 acts as a protein disulfide isomerase (PDI) resembling PDIA3 with a role in the binding of the activator protein p67^phox” (Frontiers in Chemistry, 2015).
Entries after “also recorded” stand apart in the source; their conditions may differ.

Assays:
NADPH oxidase = system: NADPH oxidase; design: method as in 8 sources, one per row (each row's own in cited_ref): ref Shpungin et al., [1989] ||| ref Bellavite et al., [1983]; Gabig and Lefker, [1984] ||| ref Pick et al., [1987] ||| ref Le Cabec and Maridonneau-Parini, [1995] ||| ref Nishida et al., [2005] ||| ...; conditions: acts on a membrane component; ref Shpungin et al., [1989]; cited from earlier work
p67^phox(1–526) [1] = assay: Effect of thiol reagents on binding of p67phox(1–526) to Nox2 peptide 24; conditions: 1 h room temperature
[2] = system: NADPH oxidase in intact phagocytes / neutrophils; design: method as in 3 sources, one per row (each row's own in cited_ref): ref Cohen and Chovaniec, [1978]; Yamashita et al., [1984] ||| ref Le Cabec and Maridonneau-Parini, [1995] ||| ref Tsunawaki et al., [2004]; conditions: added before activation; ref Cohen and Chovaniec, [1978]; Yamashita et al., [1984]; cited from earlier work
p67^phox(1–212) = assay: Protein–protein binding assay, p67phox(1–212)
oxidized insulin = assay: Insulin reduction (turbidimetric) assay; format: biochemical; conditions: up to 5 μM
[3] = PDI reductase activity, DE-GSSG reduction; format: biochemical; conditions: for Vmax, PDI reductase activity (Figure 6B): DTT only 5,124
p67^phox(1–526) [4] = assay: Protein–protein binding assay, p67phox(1–526); conditions: homodimers, 0.5 μM, p67phox coated at 0.5 μM; one characteristic experiment (Figure 5A)
[5] = target: T1, NADPH oxidase (macrophage membrane liposomes, cytochrome b558) (Cavia porcellus, UniProt H0UXC6); assay: Cell-free NADPH oxidase activation, amphiphile- and p47phox-dependent; format: biochemical, guinea pig; conditions: for EC50: equal concentrations of p67phox, p47phox and Rac1 Q61L 10–200 nM, LiDS 120 μM, 5 nM cytochrome b558 heme, 90 s (Figure 13A), read-out: EC50, support of NADPH oxidase activation
[6] = target: T1, NADPH oxidase (macrophage membrane liposomes, cytochrome b558); assay: Cell-free NADPH oxidase activation, amphiphile- and p47phox-independent; format: biochemical, guinea pig; conditions: equal concentrations of p67phox and prenylated Rac1 Q61L 50–600 nM, 5 nM cytochrome b558 heme, 5 min (Figure 13B), read-out: EC50, support of NADPH oxidase activation
[7] = Binding of thiol reagent mBBr to p67phox(1–212); conditions: results not shown
[8] = system: Nox2 peptide 24 (357–371); assay: Peptide–protein binding assay, wild type and Cys to Ser mutant p67phox(1–212) to Nox2 peptide 24; conditions: 3 experiments (Figure 12); for binding to Nox2 peptide 24 in the disulfide form: 24N CGC S-S; for binding to Nox2 peptide 24 in the dithiol (reduced) form: 24N CGC

## CCN1C(=O)C=CC1=O [NEM, N-ethylmaleimide]
NADPH oxidase
  inhibition of oxidase activation in vitro: inhibited
p67^phox(1–526) [1]; NEM 0.1 mM or diamide 5 mM, three experiments (Figure 2A,B)
  effect of pretreatment of p67phox on low affinity binding to native form of peptide 24: suppressed
p67^phox(1–526) [1]; p67^phox(1–526) 1.5 μM, NEM 0.1 mM, three experiments (Figure 2A)
  effect of NEM pretreatment of p67phox on binding to peptide 24 in the disulfide form: totally abolished
[2]
  inhibition of oxidase activation in intact phagocytes: inhibited

B1: NusA-Nox2(357–570): fusion protein of NusA and Nox2 residues 357–570, contains the CGC triad (protein)
chain: IVGDWTEGLFNACGCDKQEFQDAWKLPKIAVDGPFGTASEDVFSYEVVMLVGAGIGVTPFASILKSVWYKYCNNATNLKLKKIYFYWLCRDTHAFEWFADLLQLLESQMQERNNAGFLSYNIYLTGWDESQANHFAVHHDEEKDVITGLKQKTLYGRPNWDNEFKTIASQHPNTRIGVFLCGPEALAETLSKQSISNSESGPRGVHFIFNKENF
modifications: left off: NusA (E. coli), N-terminal, kept | His tag (from the purification on Nickel Sepharose), end not stated, state not stated
notes: fusion protein of NusA and Nox2 residues 357–570, contains the CGC triad
p67^phox(1–212); homodimers, 0.5 μM, p67phox coated at 0.5 μM, one characteristic experiment (Figure 5B)
  binding of NusA-Nox2 to p67phox(1–212): significant binding
Oxidized insulin
  insulin reductase activity: no activity could be detected
[3]; 1 μM, DE-GSSG 0.8 μM, DTT 12.5 μM, pH 7.0, 24°C, mean ± SEM of 9 experiments
  Vmax, PDI reductase activity (Figure 7A): 49,164 ± 2271
[3]; 1 μM, DE-GSSG 800 nM, DTT 12.5 μM, one characteristic experiment
  Vmax, PDI reductase activity (Figure 6B): 41,130 milli relative fluorescence units per min
[3]; 2 μM (Figure 6A)
  PDI activity compared with DTT alone: marked excess
[3]; 2 μM, DE-GSSG 800 nM, DTT 12.5 μM, one characteristic experiment
  Vmax, PDI reductase activity (Figure 6B): 62,074 milli relative fluorescence units per min
[3]; 2 μM, DE-GSSG 800 nM, DTT 12.5 μM, one characteristic experiment, DTT only 8,254
  Vmax, PDI reductase activity in the absence of PAO (Figure 6D): 40,306 milli relative fluorescence units per min
[3]; 2 μM, DE-GSSG 800 nM, DTT 12.5 μM, one characteristic experiment, DTT only 26,248
  Vmax, PDI reductase activity (Figure 6C): 127,476 milli relative fluorescence units per min
[3]; 3 μM, DE-GSSG 800 nM, DTT 12.5 μM, one characteristic experiment
  Vmax, PDI reductase activity (Figure 6B): 73,736 milli relative fluorescence units per min
[3]; 4 μM, DE-GSSG 800 nM, DTT 12.5 μM, one characteristic experiment
  Vmax, PDI reductase activity (Figure 6B): 86,162 milli relative fluorescence units per min
[3]; 1–4 μM (Figure 6B)
  dose dependency of reductase activity: clear dose dependency
[3]; NusA-Nox2(357–570) 2 μM, DE-GSSG 800 nM, DTT 12.5 μM, pH 7.0, 24°C, 30 min, DTT only 7,108 and 9,423
  Vmax, PDI reductase activity (Figure 6A): 52,312 ± 1,380 milli relative fluorescence units per min
p67^phox(1–526) [4]
  binding of NusA-Nox2 to p67phox(1–526): significant binding

B2: p67^phox(1–212): wild-type recombinant p67phox residues 1–212 (protein)
chain: MSLVEAISLWNEGVLAADKKDWKGALDAFSAVQDPHSRICFNIGCMYTILKNMTEAEKAFTRSINRDKHLAVAYFQRGMLYYQTEKYDLAIKDLKEALIQLRGNQLIDYKILGLQFKLFACEVLYNIAFMYAKKEEWKKAEEQLALATSMKSEPRHSKIDKAMECVWKQKLYEPVVIPVGKLFRPNERQVAQLAKKDYLGKATVVASVVDQD
modifications: left off: 6His, N-terminal, kept
[5]
  EC50: 57.2 nM
p67^phox(1–212); Figure 5A,B
  binding of NusA-Nox2 to p67phox(1–212) relative to p67phox(1–526): exceeded
[6]
  EC50: 224 nM
[7]
  binding of mBBr: bound mBBr
[8]
  binding to Nox2 peptide 24 in the disulfide form: much enhanced binding
  binding to Nox2 peptide 24 in the dithiol (reduced) form: moderate binding

B3: Mutant p67^phox: recombinant p67phox(1–212) in which cysteines 40, 45, 121, and 165 were mutated to serine (protein)
chain: MSLVEAISLWNEGVLAADKKDWKGALDAFSAVQDPHSRISFNIGSMYTILKNMTEAEKAFTRSINRDKHLAVAYFQRGMLYYQTEKYDLAIKDLKEALIQLRGNQLIDYKILGLQFKLFASEVLYNIAFMYAKKEEWKKAEEQLALATSMKSEPRHSKIDKAMESVWKQKLYEPVVIPVGKLFRPNERQVAQLAKKDYLGKATVVASVVDQD
modifications: left off: 6His, N-terminal, kept
notes: recombinant p67phox(1–212) in which cysteines 40, 45, 121, and 165 were mutated to serine
[5]
  increase in EC50 versus wild-type: two-fold
  EC50: 114 nM
[6]
  EC50: 405 nM
[7]
  binding of mBBr: did not
[8]; listed as mutant protein
  binding to Nox2 peptide 24 in the disulfide form: markedly reduced
  binding to Nox2 peptide 24 in the dithiol (reduced) form: lacked binding ability; also recorded: markedly reduced
